{
  "source": "paper PMC4538829",
  "binders": {"B1": {"name": "SS-Pu27 (biotin) (ssDNA)", "DNA": "TGGGGAGGGTGGGGAGGGTGGGGAAGG"}, "B2": {"name": "c-MYC Pu18 G-quadruplex (structured_DNA)", "DNA": "AGGGTGGGGAGGGTGGGG"}, "B3": {"name": "c-MYC Pu27 (FAM) (ssDNA)", "DNA": "TGGGGAGGGTGGGGAGGGTGGGGAAGG"}},
  "key": {"NM23-H2 D121A [1]": {"molecular_target": "T1, NM23-H2 D121A (UniProt P22392 1-152, D121A)", "T1 sequence (P22392 whole entry D121A)": "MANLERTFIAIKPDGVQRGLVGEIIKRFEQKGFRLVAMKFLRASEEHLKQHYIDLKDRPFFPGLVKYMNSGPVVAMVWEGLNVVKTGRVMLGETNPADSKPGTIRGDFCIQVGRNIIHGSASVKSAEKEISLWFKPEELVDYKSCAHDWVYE", "test": "filter binding"}, "NM23-H2 D54A/D121A [2]": {"molecular_target": "T2, NM23-H2 D54A/D121A (UniProt P22392 1-152, D54A;D121A)", "T2 sequence (P22392 whole entry D54A/D121A)": "as the sequence (P22392 whole entry D121A) above, with D54A counted along it", "test": "filter binding"}, "NM23-H2 D54A/D121A/F60A [3]": {"molecular_target": "T3, NM23-H2 D54A/D121A/F60A (UniProt P22392 1-152, D54A;F60A;D121A)", "T3 sequence (P22392 whole entry D54A/F60A/D121A)": "as the sequence (P22392 whole entry D121A) above, with D54A, F60A counted along it", "test": "filter binding"}, "NM23-H2 G113F [4]": {"molecular_target": "T4, NM23-H2 G113F (UniProt P22392 1-152, G113F)", "T4 sequence (P22392 whole entry G113F)": "as the sequence (P22392 whole entry D121A) above, with G113F, A121D counted along it", "test": "filter binding"}, "NM23-H2 wild-type": {"molecular_target": "NM23-H2 wild-type (UniProt P22392 1-152)", "sequence (P22392 whole entry)": "as the sequence (P22392 whole entry D121A) above, with A121D counted along it", "test": "ELISA"}, "NM23-H2 D121A [5]": {"molecular_target": "T1, NM23-H2 D121A", "test": "EMSA"}, "NM23-H2 D54A/D121A [6]": {"molecular_target": "T2, NM23-H2 D54A/D121A", "test": "EMSA"}, "NM23-H2 D54A/D121A/F60A [7]": {"molecular_target": "T3, NM23-H2 D54A/D121A/F60A", "test": "EMSA"}, "NM23-H2 G113F [8]": {"molecular_target": "T4, NM23-H2 G113F", "test": "EMSA"}},
  "data": [
    {"binder": "B1", "values": [
      {"measurement": "binding result", "setting": "NM23-H2 D121A [1]", "value": "no binding"},
      {"measurement": "binding result", "setting": "NM23-H2 D54A/D121A [2]", "value": "no binding"},
      {"measurement": "binding result", "setting": "NM23-H2 D54A/D121A/F60A [3]", "value": "no binding"},
      {"measurement": "binding result", "setting": "NM23-H2 G113F [4]", "value": "no binding"}
    ]},
    {"binder": "B2", "values": [
      {"measurement": "Kd", "setting": "NM23-H2 wild-type", "value": "530 ± 18", "unit": "nM"}
    ]},
    {"binder": "B3", "values": [
      {"measurement": "binding result", "setting": "NM23-H2 D121A [5]", "value": "no binding"},
      {"measurement": "binding result", "setting": "NM23-H2 D54A/D121A [6]", "value": "no binding"},
      {"measurement": "binding result", "setting": "NM23-H2 D54A/D121A/F60A [7]", "value": "no binding"},
      {"measurement": "binding result", "setting": "NM23-H2 G113F [8]", "value": "no binding"}
    ]}
  ]
}
